{"source": "patent US7781394B2", "about": "“Methods for identifying anti-tumor and/or anti-angiogenesis drugs with deoxynucleoside 5′-monophosphate N-glycosidase as the target” (Institut Pasteur, priority 2006, dated 2010)", "molecules": {"B1": {"name": "Rcl E 93A: dominant negative RCL mutant, Glu-93 replaced by Ala, overexpressed in Rat1a-MYC cells (protein, UniProt O35820 2-163, looked up, variant E93A)", "5-hydroxymethyl-dUMP …": "AASGEQAPCSVYFCGSIRGGREDQALYARIVSRLRRYGKVLTEHVADAELEPLGEEAAGGDQFIHEQDLNWLQQADVVVAEVTQPSLGVGYALGRAVALGKPILCLFRPQSGRVLSAMIRGAADGSRFQVWDYAEGEVETMLDRYFEAYLPQKTASSSHPSA"}}, "key": {"[1]": {"tested_on": "Rat1a-MYC cell xenografts", "assay": "Nude mouse xenografts of Rat1a-MYC-Rcl-E93A cells, tumorigenicity", "type": "in vivo", "conditions": "two independent cell pools", "source_text": "FIG. 7A. Immunoblot showing expression of Rcl-E93A protein in 293T cells; pPURO (pBabe-Puro) represents control transfected cells; none=untransfected cells. B. Immunoblot showing expression of Rcl and Rcl-E 93A in Rat1a-MYC cells (which have high levels of endogenous Rcl). Numbers at the top represents different cell pools. Numbers at the bottom represents normalized relative expression. C. Agarose gel showing expression of Rcl-E93A mRNA in transfectants by RT-PCR of control pPURO or Rcl-E93A expressing Rat1a-MYC cell pools. Signals are dependent on reverse transcriptase (not shown) D. Tumor sizes of pBABE (pools 1 and 2) control Rat1a-Myc cell pools compared with RCL E93A expressing Rat1a-MYC cell pools (E93A#1+E93A#4). Average tumor sizes determined by caliper are shown for groups of nine animals. Error bars are standard deviations.\n(§1) In addition to the studies on RCL (C6orf108) gain-of-function in tumorigenesis, we determined the effect of loss of RCL function on tumorigenesis with the Rat1a-Myc cells. We generated control Rat1a-MYC cells and Rat1a-MYC cells that overexpress the dominant negative Rcl E 93A mutant. Two independent control transfected cell pools and two independent Rcl E 93A Rat1a-MYC transfectant cell pools were studied (FIG. 7)."}, "[2]": {"tested_on": "Rat1a-MYC cells", "assay": "In vitro growth of Rat1a-MYC cells overexpressing dominant negative Rcl E93A", "type": "cell-based, rat", "conditions": "Rat1a-MYC cells overexpressing the mutant", "source_text": "as §1"}}, "data": [{"molecule": "B1", "values": [{"measurement": "tumorigenicity of xenografts versus control cell pools", "setting": "[1]", "value": "remarkable decrease in tumorigenicity"}, {"measurement": "effect on growth rates in vitro", "setting": "[2]", "value": "does not affect growth rates"}]}]}
